Results: patent publication US20160068822A1

Columns and labels:
TALE(Ngn2)-NLS-CRY2PHR = test: cell-based or functional assay
TALE(KLF4)-NLS-CRY2PHR = test: cell-based or functional assay

## CIB1-NLS-VP64-2A_GFP
TALE(Ngn2)-NLS-CRY2PHR
  Neurog2 expression peak at 12 h of light stimulation: 19 fold
  Neurog2 mRNA level 0.5 h after the end of a 6 h stimulation: 16 fold
  upregulation of Neurog2 expression at 0.5 h of light stimulation: 5 fold
TALE(KLF4)-NLS-CRY2PHR
  KLF4 mRNA upregulation, saturated at 5 mW/cm2 (HEK293FT cells): 2.3 fold
